{"source": "the supplement of paper PMC11780869", "data": [{"test_system": "Bacillus subtilis", "test": "cleaved RNA product abundance (RNA/gDNA barcode ratio) relative to median wild-type variant (ratio to wild type); higher = more accumulation of the downstream cleavage product", "settings": "experiment (reporter, strain, medium): exp 8a: truncated aprE reporter, strain BJT201 with 2% xylose (RNase J1 expressed); cleavage site: glnRA (positions -5 to +31 mutated)", "outline": "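B. subtilis strains with chromosomally integrated reporter mRNAs (truncated aprE or tetM) holding barcoded, mutagenized RNase Y cleavage-site windows grew in LB at 37°C from OD600 0.0003 to 0.3. Cleaved product abundance is each construct's RNA:gDNA barcode ratio, scaled to the median construct with the unmutated site. It came from sequencing barcodes of gel-selected, reverse-transcribed cleaved RNA and of genomic DNA.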", "values": [{"sequence": "CGACATGTCCCGCTTCTTTCATTAATCCGTTAGCAACGGTTTTGCCATATACATTTACCTTTTAAGAGGAGGAAT", "cleaved RNA product abundance": 0.202}, {"sequence": "CGACATGTCCCGCTTCTTTCATTAATCCGTTAGCAACGGTTTTGCTATATACATTTACCTTTTAAGAGGAGGAAT", "cleaved RNA product abundance": 0.387}, {"sequence": "CGACATGTCCCGCTTCTTTCATTAATCCGTTAGCAACGGTTTTGTTATATACATTTACCTTTTAAGAGGAGGAAT", "cleaved RNA product abundance": 0.364}, {"sequence": "CGACATGTCCCGCTTCTTTCATTAATCCGTTAGCAACTAATTTGCTATATACATTTACCTTTTAAGAGGAGGAAT", "cleaved RNA product abundance": 1.85}, {"sequence": "CGACATGTCCCGCTTCTTTCATTAATCCGTTAGCAACTAGTTTGCTATATACATTTACCTTTTAAGAGGAGGAAT", "cleaved RNA product abundance": 1.29}, {"sequence": "CGACATGTCCCGCTTCTTTCATTAATCCGTTAGCAACTATATTGCTATATACATTTACCTTTTAAGAGGAGGAAT", "cleaved RNA product abundance": 1.45}, {"sequence": "CGACATGTCCCGCTTCTTTCATTAATCCGTTAGCAACTATTATGCTATATACATTTACCTTTTAAGAGGAGGAAT", "cleaved RNA product abundance": 0.785}, {"sequence": "CGACATGTCCCGCTTCTTTCATTAATCCGTTAGCAACTATTCTGCTATATACATTTACCTTTTAAGAGGAGGAAT", "cleaved RNA product abundance": 0.838}, {"sequence": "CGACATGTCCCGCTTCTTTCATTAATCCGTTAGCAACTATTTAGCTATATACATTTACCTTTTAAGAGGAGGAAT", "cleaved RNA product abundance": 1.01}, {"sequence": "CGACATGTCCCGCTTCTTTCATTAATCCGTTAGCAACTATTTTACTATATACATTTACCTTTTAAGAGGAGGAAT", "cleaved RNA product abundance": 0.726}, {"sequence": "CGACATGTCCCGCTTCTTTCATTAATCCGTTAGCAACTATTTTGATATATACATTTACCTTTTAAGAGGAGGAAT", "cleaved RNA product abundance": 0.503}, {"sequence": "CGACATGTCCCGCTTCTTTCATTAATCCGTTAGCAACTATTTTGCAATATACATTTACCTTTTAAGAGGAGGAAT", "cleaved RNA product abundance": 0.531}, {"sequence": "CGACATGTCCCGCTTCTTTCATTAATCCGTTAGCAACTATTTTGCCATATACATTTACCTTTTAAGAGGAGGAAT", "cleaved RNA product abundance": 0.121}, {"sequence": "CGACATGTCCCGCTTCTTTCATTAATCCGTTAGCAACTATTTTGCTATAAACATTTACCTTTTAAGAGGAGGAAT", "cleaved RNA product abundance": 1}, {"sequence": "CGACATGTCCCGCTTCTTTCATTAATCCGTTAGCAACTATTTTGCTATATACAATTACCTTTTAAGAGGAGGAAT", "cleaved RNA product abundance": 1.98}, {"sequence": "CGACATGTCCCGCTTCTTTCATTAATCCGTTAGCAACTATTTTGCTATATACACTTACCTTTTAAGAGGAGGAAT", "cleaved RNA product abundance": 1.29}, {"sequence": "CGACATGTCCCGCTTCTTTCATTAATCCGTTAGCAACTATTTTGCTATATACATCTACCTTTTAAGAGGAGGAAT", "cleaved RNA product abundance": 0.944}, {"sequence": "CGACATGTCCCGCTTCTTTCATTAATCCGTTAGCAACTATTTTGCTATATACATGTACCTTTTAAGAGGAGGAAT", "cleaved RNA product abundance": 1.19}, {"sequence": "CGACATGTCCCGCTTCTTTCATTAATCCGTTAGCAACTATTTTGCTATATACATTTACATTTTAAGAGGAGGAAT", "cleaved RNA product abundance": 3.23}, {"sequence": "CGACATGTCCCGCTTCTTTCATTAATCCGTTAGCAACTATTTTGCTATATACATTTACCCTTTAAGAGGAGGAAT", "cleaved RNA product abundance": 0.937}, {"sequence": "CGACATGTCCCGCTTCTTTCATTAATCCGTTAGCAACTATTTTGCTATATACATTTACCTTTTAAGAGGAGGAAT", "cleaved RNA product abundance": 1.34}, {"sequence": "CGACATGTCCCGCTTCTTTCATTAATCCGTTAGCAACTATTTTGCTATATACATTTACTTTTTAAGAGGAGGAAT", "cleaved RNA product abundance": 1.55}, {"sequence": "CGACATGTCCCGCTTCTTTCATTAATCCGTTAGCAACTATTTTGCTATATACATTTAGCTTTTAAGAGGAGGAAT", "cleaved RNA product abundance": 1.16}, {"sequence": "CGACATGTCCCGCTTCTTTCATTAATCCGTTAGCAACTATTTTGCTATATACGTTTACCTTTTAAGAGGAGGAAT", "cleaved RNA product abundance": 0.197}, {"sequence": "CGACATGTCCCGCTTCTTTCATTAATCCGTTAGCAACTATTTTGCTATATATATTTACCTTTTAAGAGGAGGAAT", "cleaved RNA product abundance": 1.42}, {"sequence": "CGACATGTCCCGCTTCTTTCATTAATCCGTTAGCAACTATTTTGCTATCTACATTTACCTTTTAAGAGGAGGAAT", "cleaved RNA product abundance": 0.108}, {"sequence": "CGACATGTCCCGCTTCTTTCATTAATCCGTTAGCAACTATTTTGCTTTATACATTTACCTTTTAAGAGGAGGAAT", "cleaved RNA product abundance": 0.459}, {"sequence": "CGACATGTCCCGCTTCTTTCATTAATCCGTTAGCAACTATTTTGGTATATACATTTACCTTTTAAGAGGAGGAAT", "cleaved RNA product abundance": 0.273}, {"sequence": "CGACATGTCCCGCTTCTTTCATTAATCCGTTAGCAACTATTTTGTTATATACATTTACCTTTTAAGAGGAGGAAT", "cleaved RNA product abundance": 0.578}, {"sequence": "CGACATGTCCCGCTTCTTTCATTAATCCGTTAGCAACTATTTTTCTATATACATTTACCTTTTAAGAGGAGGAAT", "cleaved RNA product abundance": 0.613}, {"sequence": "CGACATGTCCCGCTTCTTTCATTAATCCGTTAGCAACTCATTTGCTATATACATTTACCTTTTAAGAGGAGGAAT", "cleaved RNA product abundance": 1.46}, {"sequence": "CGACATGTCCCGCTTCTTTCATTAATCCGTTAGCAACTCTTTTACTATATACATTTACCTTTTAAGAGGAGGAAT", "cleaved RNA product abundance": 0.579}, {"sequence": "CGACATGTCCCGCTTCTTTCATTAATCCGTTAGCAACTCTTTTGATATATACATTTACCTTTTAAGAGGAGGAAT", "cleaved RNA product abundance": 0.51}, {"sequence": "CGACATGTCCCGCTTCTTTCATTAATCCGTTAGCAACTCTTTTGCTATAAACATTTACCTTTTAAGAGGAGGAAT", "cleaved RNA product abundance": 1.3}, {"sequence": "CGACATGTCCCGCTTCTTTCATTAATCCGTTAGCAACTCTTTTGCTATATACATTTAACTTTTAAGAGGAGGAAT", "cleaved RNA product abundance": 1.36}, {"sequence": "CGACATGTCCCGCTTCTTTCATTAATCCGTTAGCAACTCTTTTGCTATATACATTTACCTTTTAAGAGGAGGAAT", "cleaved RNA product abundance": 1.15}, {"sequence": "CGACATGTCCCGCTTCTTTCATTAATCCGTTAGCAACTCTTTTTCTATATACATTTACCTTTTAAGAGGAGGAAT", "cleaved RNA product abundance": 0.642}, {"sequence": "CGACATGTCCCGCTTCTTTCATTAATCCGTTAGCAACTGAGTTGCTATATACATTTACCTTTTAAGAGGAGGAAT", "cleaved RNA product abundance": 0.261}, {"sequence": "CGACATGTCCCGCTTCTTTCATTAATCCGTTAGCAACTGATTTACTATATACATTTACCTTTTAAGAGGAGGAAT", "cleaved RNA product abundance": 0.502}, {"sequence": "CGACATGTCCCGCTTCTTTCATTAATCCGTTAGCAACTGATTTGATATATACATTTACCTTTTAAGAGGAGGAAT", "cleaved RNA product abundance": 0.463}, {"sequence": "CGACATGTCCCGCTTCTTTCATTAATCCGTTAGCAACTGATTTGCAATATACATTTACCTTTTAAGAGGAGGAAT", "cleaved RNA product abundance": 0.49}, {"sequence": "CGACATGTCCCGCTTCTTTCATTAATCCGTTAGCAACTGATTTGCCATATACATTTACCTTTTAAGAGGAGGAAT", "cleaved RNA product abundance": 0.226}, {"sequence": "CGACATGTCCCGCTTCTTTCATTAATCCGTTAGCAACTGATTTGCTAAATACATTTACCTTTTAAGAGGAGGAAT", "cleaved RNA product abundance": 0.217}, {"sequence": "CGACATGTCCCGCTTCTTTCATTAATCCGTTAGCAACTGATTTGCTATAAACATTTACCTTTTAAGAGGAGGAAT", "cleaved RNA product abundance": 0.686}, {"sequence": "CGACATGTCCCGCTTCTTTCATTAATCCGTTAGCAACTGATTTGCTATATACATATACCTTTTAAGAGGAGGAAT", "cleaved RNA product abundance": 1}, {"sequence": "CGACATGTCCCGCTTCTTTCATTAATCCGTTAGCAACTGATTTGCTATATACATTAACCTTTTAAGAGGAGGAAT", "cleaved RNA product abundance": 1.33}, {"sequence": "CGACATGTCCCGCTTCTTTCATTAATCCGTTAGCAACTGATTTGCTATATACATTTACCCTTTAAGAGGAGGAAT", "cleaved RNA product abundance": 0.843}, {"sequence": "CGACATGTCCCGCTTCTTTCATTAATCCGTTAGCAACTGATTTGCTATATACATTTACCTTTTAAGAGGAGGAAT", "cleaved RNA product abundance": 0.96}, {"sequence": "CGACATGTCCCGCTTCTTTCATTAATCCGTTAGCAACTGATTTGCTATATACATTTACTTTTTAAGAGGAGGAAT", "cleaved RNA product abundance": 1.06}, {"sequence": "CGACATGTCCCGCTTCTTTCATTAATCCGTTAGCAACTGATTTGCTATATACATTTATCTTTTAAGAGGAGGAAT", "cleaved RNA product abundance": 1.36}]}]}
